The source of these data is the RNAGym collection of RNA variant scans (doi:10.1093/molbev/msab373).

To fix the notation:
B1: Azoarcus group I ribozyme (parent)
chain: GUGCCUUGCGCCGGGAAACCACGCAAGGGAUGGUGUCAAAUUCGGCGAAACCUAAGCGCCCGCCCGGGCGUAUGGCAACGCCGAGCCAAGCUUCGGCGCCUGCGCCGAUGAAGGUGUAGAGACUAGACGGCACCCACCUAAGGCAAACGCUAUGGUGAAGGCAUAGUCCAGGGAGUGGCGAAAGUCACACAAACCGG

Variants of B1 are the subject of the series. The experiment in a line: reverse-splicing fitness (ratio to wild type); higher = more active; in vitro selection; Mg2+ level not given. The method in brief:
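An in vitro group I ribozyme library with randomized positions was T7-transcribed and gel-purified. In triplicate, 10 pmol RNA in EPPS pH 7.5 was reacted with 50 pmoles of a 30-nt RNA substrate for 1 h at 37 °C across several added MgCl2 levels (1–48 mM), then stopped with EDTA. Products were reverse transcribed from a substrate-complementary primer, PCR-amplified and sequenced (HiSeq 4000). Fitness is a variant's read proportion after selection over that before, normalised to wild type.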
Consider A111U A120U A145U U176C, for which the reverse-splicing fitness came to 0.281.

A111U A120U A145U U176A: the reverse-splicing fitness was determined as 0.241.

Consider A111U A120U C150U C169A U176C, for which the reverse-splicing fitness stood at 0.00279.

On to A111U A120U C150U C169A U176A, for which the reverse-splicing fitness stood at 0.00464.

On to A111U A120U C150U C169A U176G, for which the reverse-splicing fitness amounted to 0.00214.

With A111U A120U A145U C150U U176C, the reverse-splicing fitness came out at 0.174.

With A111U A120U A145U C150U U176A, the reverse-splicing fitness was 0.16.

A111U A120U A145U C150U U176G: the reverse-splicing fitness came to 0.0292.

Regarding A111U A120G C150U C169A U176A, the reverse-splicing fitness stood at 0.0189.

Take A111U A120G C150U C169A U176G: the reverse-splicing fitness stood at 0.00517.

In the case of A111U A120G C150U C169A U176C, the reverse-splicing fitness is 0.0245.

For the variant A111U A120U A145C C150U C169G U176C, the reverse-splicing fitness was determined as 0.00276.

For the variant A111U A120U A145C C150U C169G U176A, the reverse-splicing fitness came out at 0.0032.

Consider A111U A120U A145C C150U C169G U176G, for which the reverse-splicing fitness was determined as 0.00222.

As to A111U A120U C150G, the reverse-splicing fitness is 0.045.

With A111U A120U C150A, the reverse-splicing fitness was 0.0595.

For the variant A111U A120U C150U, the reverse-splicing fitness came to 0.374.

For the variant A111U A145C C150A C169G, the reverse-splicing fitness stood at 0.00935.

Regarding A111U A145C C150A C169U, the reverse-splicing fitness worked out at 0.0131.

Consider A111U A145C C150A C169A, for which the reverse-splicing fitness stood at 0.00817.

Turning to A111U A120U A145C C150G C169U U176G, the reverse-splicing fitness amounted to 0.00228.

Regarding A111U A120U A145C C150G C169U U176C, the reverse-splicing fitness amounted to 0.0029.

Regarding A111U A120U A145C C150G C169U U176A, the reverse-splicing fitness worked out at 0.00301.

A111U A120U A145U C150A C169A U176C: the reverse-splicing fitness amounted to 0.00214.

In the case of A111U A120U A145U C150A C169A U176G, the reverse-splicing fitness came out at 0.00154.

As for A111U A120U A145U C150A C169A U176A, the reverse-splicing fitness came out at 0.00284.

Take A111U A120U A145G C150G C169U U176G: the reverse-splicing fitness turned out to be 0.00383.

In the case of A111U A120U A145G C150G C169U U176A, the reverse-splicing fitness is 0.00644.

As to A111U A120U A145G C150G C169U U176C, the reverse-splicing fitness worked out at 0.00615.

In the case of A111U A120U C150G U176C, the reverse-splicing fitness is 0.0189.

In the case of A111U A120U C150G U176G, the reverse-splicing fitness was 0.00286.

A111U A120U C150G U176A: the reverse-splicing fitness is 0.00718.

As for A111U A120G C150U C169A, the reverse-splicing fitness was determined as 0.0593.

For A111U A120G C150U C169U, the reverse-splicing fitness stood at 0.0857.

As for A111U A120G C150U C169G, the reverse-splicing fitness came out at 0.112.

In the case of A111U A120U A145U C150A U176A, the reverse-splicing fitness stood at 0.0229.

For A111U A120U A145U C150A U176G, the reverse-splicing fitness stood at 0.00946.

For A111U A120U A145U C150A U176C, the reverse-splicing fitness turned out to be 0.0269.

With A111U A120U A145C C169U, the reverse-splicing fitness stood at 0.0629.

As to A111U A120U A145C C169A, the reverse-splicing fitness came out at 0.00435.

As for A111U A120U A145C C169G, the reverse-splicing fitness came out at 0.0459.

Consider A111U A120U C150G C169U U176C, for which the reverse-splicing fitness stood at 0.00454.

In the case of A111U A120U C150G C169U U176A, the reverse-splicing fitness was 0.00272.

In the case of A111U A120U C150G C169U U176G, the reverse-splicing fitness is 0.0029.

Regarding A111U A145C C150G U176G, the reverse-splicing fitness was 0.0277.

As to A111U A145C C150G U176C, the reverse-splicing fitness is 0.218.

With A111U A145C C150G U176A, the reverse-splicing fitness worked out at 0.153.

Regarding A111U A145C C150A, the reverse-splicing fitness was determined as 0.23.

For A111U A145C C150G, the reverse-splicing fitness was found to be 0.426.

Regarding A111U A120U C150G C169U, the reverse-splicing fitness worked out at 0.00855.

On to A111U A120U C150G C169A, for which the reverse-splicing fitness was 0.00749.

As to A111U A120U C150G C169G, the reverse-splicing fitness is 0.00802.

As to A111U A120U A145U C150U, the reverse-splicing fitness amounted to 0.405.

For the variant A111U A120U A145U C150G, the reverse-splicing fitness was found to be 0.0604.

As to A111U A120U A145U C150A, the reverse-splicing fitness worked out at 0.0527.

For A111U A120U C150U C169G, the reverse-splicing fitness was found to be 0.0274.

Take A111U A120U C150U C169U: the reverse-splicing fitness is 0.0369.

With A111U A120U C150U C169A, the reverse-splicing fitness is 0.00484.

As for A111U A120G C150G C169A U176A, the reverse-splicing fitness turned out to be 0.00974.

Consider A111U A120G C150G C169A U176C, for which the reverse-splicing fitness is 0.00933.

For A111U A120G C150G C169A U176G, the reverse-splicing fitness worked out at 0.0057.

For A111U A120U C150U C169G U176C, the reverse-splicing fitness is 0.00679.

Regarding A111U A120U C150U C169G U176G, the reverse-splicing fitness worked out at 0.00213.

As to A111U A120U C150U C169G U176A, the reverse-splicing fitness stood at 0.00847.

Turning to A111U A120U A145C C150U C169A U176G, the reverse-splicing fitness turned out to be 0.00275.

A111U A120U A145C C150U C169A U176C: the reverse-splicing fitness was found to be 0.00198.

As to A111U A120U A145C C150U C169A U176A, the reverse-splicing fitness stood at 0.00251.

A111U A120U A145U C169U U176C: the reverse-splicing fitness worked out at 0.0174.

Take A111U A120U A145U C169U U176G: the reverse-splicing fitness was found to be 0.00258.

Consider A111U A120U A145U C169U U176A, for which the reverse-splicing fitness worked out at 0.0087.

Take A111U A120U A145C C150U C169A: the reverse-splicing fitness worked out at 0.00229.

Regarding A111U A120U A145C C150U C169U, the reverse-splicing fitness turned out to be 0.0159.

As for A111U A120U A145C C150U C169G, the reverse-splicing fitness was 0.0115.

For the variant A111U A120U A145G C150A C169A U176G, the reverse-splicing fitness was 0.00281.

Take A111U A120U A145G C150A C169A U176A: the reverse-splicing fitness is 0.0049.

As to A111U A120U A145G C150A C169A U176C, the reverse-splicing fitness amounted to 0.0038.

For A111U A120U A145C C150G U176C, the reverse-splicing fitness is 0.0148.

In the case of A111U A120U A145C C150G U176G, the reverse-splicing fitness came to 0.00337.

For the variant A111U A120U A145C C150G U176A, the reverse-splicing fitness worked out at 0.0107.

Turning to A111U A120U A145C C150A C169A U176C, the reverse-splicing fitness turned out to be 0.00287.

Take A111U A120U A145C C150A C169A U176G: the reverse-splicing fitness is 0.00243.

Consider A111U A120U A145C C150A C169A U176A, for which the reverse-splicing fitness is 0.00272.

Turning to A111U A120U A145U C150U C169G U176C, the reverse-splicing fitness came out at 0.00596.

With A111U A120U A145U C150U C169G U176A, the reverse-splicing fitness amounted to 0.00542.
